Assay results reported in patent US20220031813A1, “INHIBITOR OF EXTRACELLULAR TRAP FORMATION IN LEUKOCYTES” (priority 2013, published 2022).

Key:
[1] = bovine proteins; cited from earlier work
human neutrophils [2] = test: Rate of NETs formation in PMA-stimulated neutrophils after pre-treatment, counted by confocal microscopy; assay type: cell-based
human neutrophils [3] = test: Specificity experiment: inhibition of NETs formation by DNA concentration in the culture supernatant; assay type: cell-based; conditions: n=3, p<0.01, FIG. 10
Method: About 1 hour after the isolation of the neutrophils described in “1. Method of isolating human neutrophils” in Example 2, the neutrophils were pre-treated. On an 8-well microslide (Cat. No. ib 80826 Ibidi (registered trademark)), the neutrophils were seeded in 400 μl of culture DMEM+2% human serum Alb (serum human albumin; Product No. A9080 Sigma+4 mM L-glutamine) at a rate of about 1.0×10^5 cells/well, and stimulated with PMA (final concentration: 25 nM, stock: 10 mM in DMSO, Sigma Prod No. P8139). At thirty minutes before the stimulation, and at every one hour or every two hours after the stimulation, 200 μg/ml of human lactoferrin (stock: 100 mg/ml, 200 μl; Cat. No. SIGL6793, SIGMA) was added to perform inhibition [FIG. 2].
The culture supernatant was recovered and centrifuged at 200×g for 10 minutes, and the supernatant was transferred to a new microscopic centrifuge tube. The DNA amount was measured by use of Picogreen dsDNA assay reagent (P11496 Invitrogen) in accordance with an accompanying protocol. Treatment with human lactoferrin at one hour and two hours after the stimulation was a similar effect to the prior pre-treatment, the DNA concentration in the culture supernatant decreased, resulting in suppression of the release of the DNAs by the NETs [FIG. 2]. […]

[4] = system: histone-induced thrombus (DIC) model mice; test: Survival rate/lifetime extension of histone-induced thrombus (DIC) model mice; assay type: in vivo, mouse; conditions: 20 mg/kg i.v. 30 minutes before histone 80 mg/kg, n=8; control: one alive; p=0.0005
Method: 80 mg/kg of histone (sigma, H9250) dissolved in physiological saline and left at 37° C. was intravenously administered to the tails of 11 week old male C57BL/6 mice to create DIC model mice (Tobias A. et al., blood, 29 Sep. 2011, vol. 118, no. 13, pp. 3708-3714). As a pre-treatment, 20 mg/kg of bovine lactoferrin was intravenously administered to the tails of the mice, and 30 minute later, histone was intravenously administered to the tails of the mice (n=8). These mice were labeled as a group of mice provided with therapy with lactoferrin. To the tails of different mice (n=8), 100 μl of physiological saline not containing bovine lactoferrin was intravenously administered, and 30 minutes later, histone was intravenously administered. These mice were labeled as a control group of mice provided with no therapy. The survival rate/lifetime extension after the administration of histone was evaluated by use of the Kaplan-Meier method. The control group of mice provided with no therapy gradually started to die about 20 minutes after the administration of histone. Two days later, two mice were alive, and 4 days later, one mouse was alive. By contrast, the 8 mice in the group provided with therapy with bovine lactoferrin were all alive even 4 days later. […]

[5] = system: histone-induced thrombus model mice; test: Bleeding in lung tissues of histone-induced thrombus model mice; assay type: in vivo, mouse; conditions: 20 mg/kg i.v. 30 minutes before histone 80 mg/kg, n=4, ten minutes after histone
Method: As a pre-treatment, 20 mg/kg of bovine lactoferrin was intravenously administered to the tails of 11 week old male C57BL/6 mice, and 30 minute later, 80 mg/kg of histone (sigma, H9250) dissolved in physiological saline and left at 37° C. was intravenously administered to tails of the mice to create DIC model mice (n=4) (Tobias A., et al., Blood, 29 Sep. 2011; vol. 118: no. 13, pp. 3708-3714). For control group mice with no therapy (n=4), 100 μl of physiological saline not containing bovine lactoferrin was intravenously administered to the tails 30 minutes before histone was intravenously administered. For healthy control group mice (n=4), physiological saline, instead of the bovine lactoferrin used for the pre-treatment and also instead of histone, was administered. Ten minutes after the administration of histone (second administration of physiological saline), the mice were put to euthanasia. Lung tissues were extracted and immobilized by use of 4% paraformaldehyde.

[6] = system: histone-induced thrombus model mice; test: Bleeding time duration in histone-induced thrombus model mice; assay type: in vivo, mouse; conditions: 20 mg/kg i.v. 30 minutes before histone 60 mg/kg, n=5, vs no therapy; p<0.0001
Method: As a pre-treatment, 20 mg/kg of bovine lactoferrin was intravenously administered to the tails of 11 week old male C57BL/6 mice, and 30 minute later, 60 mg/kg of histone (sigma, H9250) dissolved in physiological saline and left at 37° C. was intravenously administered to the tails of the mice to check the effect of hemostasis on the DIC model mice (n=5) (Tobias A, et al., Blood, 2011; 118: pp. 3708-3714) (75% of the amount of histone used for improving the survival rate/lifetime extension was adopted). For control group mice without therapy (n=5), 100 μl of physiological saline not containing bovine lactoferrin was intravenously administered to the tails 30 minutes before the administration of histone. For healthy control mice (n=5), physiological saline, instead of the bovine lactoferrin used for the pre-treatment and also instead of histone, was administered. Twenty minutes after the administration of histone, the vein of the tail of each mouse was cut at a position 3 mm from the end, and immersed in a 37° C. physiological saline. At every 30 seconds, the blood was wiped off with a filter paper, and the bleeding time duration was measured (in the case where the bleeding time duration was 15 minutes or longer, the bleeding time duration was recorded as 15 minutes and a hemostasis treatment was performed) (Fuchs T A, et al., Blood, 2011; 118:3708-3714).

B1: bovine lactoferrin: bovine lactoferrin (Product No. 123-04124 WAKO); in Example 9 eluted from crude bovine milk protein; cow lactoferrin SEQ ID NO 2 (protein, listed as Bos taurus)
chain: MKLFVPALLSLGALGLCLAAPRKNVRWCTISQPEWFKCRRWQWRMKKLGAPSITCVRRAFALECIRAIAEKKADAVTLDGGMVFEAGRDPYKLRPVAAEIYGTKESPQTHYYAVAVVKKGSNFQLDQLQGRKSCHTGLGRSAGWIIPMGILRPYLSWTESLEPLQGAVAKFFSASCVPCIDRQAYPNLCQLCKGEGENQCACSSREPYFGYSGAFKCLQDGAGDVAFVKETTVFENLPEKADRDQYELLCLNNSRAPVDAFKECHLAQVPSHAVVARSVDGKEDLIWKLLSKAQEKFGKNKSRSFQLFGSPPGQRDLLFKDSALGFLRIPSKVDSALYLGSRYLTTLKNLRETAEEVKARYTRVVWCAVGPEEQKKCQQWSQQSGQNVTCATASTTDDCIVLVLKGEADALNLDGGYIYTAGKCGLVPVLAENRKSSKHSSLDCVLRPTEGYLAVAVVKKANEGLTWNSLKDKKSCHTAVDRTAGWNIPMGLIVNQTGSCAFDEFFSQSCAPGADPKSRLCALCAGDDQGLDKCVPNSKEKYYGYTGAFRCLAEDVGDVAFVKNDTVWENTNGESTADWAKNLNREDFRLLCLDGTRKPVTEAQSCHLAVAPNHAVVSRSDRAAHVKQVLLHQQALFGKNGKNCPDKFCLFKSETKNLLFNDNTECLAKLGGRPTYEEYLGTEYVTAIANLKKCSTSPLLEACAFLTR
- Isoelectric point [1]: 8.2-8.9
- rate of the NETs formed at plateau, compared with stimulation merely with PMA (human neutrophils [2]; pre-treatment 2 μg/ml for 30 minutes, then PMA 25 nM): half
- rate of the NETs formed at plateau, compared with stimulation merely with PMA (human neutrophils [2]; pre-treatment 20 μg/ml for 30 minutes, then PMA 25 nM): half
- formation of the NETs at plateau, compared with stimulation merely with PMA (human neutrophils [2]; pre-treatment 200 μg/ml for 30 minutes, then PMA 25 nM): ¼
- inhibitory effect on the formation of the NETs (human neutrophils [2]; pre-treatment with 2, 20 or 200 μg/ml, FIG. 1-A, 1-B): concentration-dependent manner
- inhibition of the formation of the NETs (human neutrophils [3]): inhibited
- mice alive 4 days after histone [4]: 8 mice
- bleeding in lung tissues [5]: not observed to bleed almost at all
- bleeding time duration [6]: significantly shorter
